# Laboratory results from patent publication US7572444B2, “Binding proteins specific for human matriptase” (Amgen Fremont Inc., priority 2004, dated 2009).
# T1: Biotinylated-MTSP1 (Homo sapiens, UniProt Q9Y5Y6)
# T1 sequence (Q9Y5Y6 615-855 limits assumed): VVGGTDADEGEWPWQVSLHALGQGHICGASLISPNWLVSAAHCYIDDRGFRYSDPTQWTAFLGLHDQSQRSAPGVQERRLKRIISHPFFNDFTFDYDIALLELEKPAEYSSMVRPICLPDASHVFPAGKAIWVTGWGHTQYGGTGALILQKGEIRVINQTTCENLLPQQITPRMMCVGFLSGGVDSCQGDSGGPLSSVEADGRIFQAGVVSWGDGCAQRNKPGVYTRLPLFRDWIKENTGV
# B1: HAI-1: the natural inhibitor of MT-SP1 (protein, UniProt O43278 36-529, looked up)
# Kunitz-type protease …: GPPPAPPGLPAGADCLNSFTAGVPGFVLDTNASVSNGATFLESPTVRRGWDCVRACCTTQNCNLALVELQPDRGEDAIAACFLINCLYEQNFVCKFAPREGFINYLTREVYRSYRQLRTQGFGGSGIPKAWAGIDLKVQPQEPLVLKDVENTDWRLLRGDTDVRVERKDPNQVELWGLKEGTYLFQLTVTSSDHPEDTANVTVTVLSTKQTEDYCLASNKVGRCRGSFPRWYYDPTEQICKSFVYGGCLGNKNNYLREEECILACRGVQGGPLRGSSGAQATFPQGPSMERRHPVCSGTCQPTQFRCSNGCCIDSFLECDDTPNCPDASDEAACEKYTSGFDELQRIHFPSDKGHCVDLPDTGLCKESIPRWYYNPFSEHCARFTYGGCYGNKNNFEEEQQCLESCRGISKKDVFGLRREIPIPSTGSVEMAVAVFLVICIVVVVAILGYCFFKNQRKDFHGHHHHPPPTPASSTVSTTEDTEHLVYNHTTRPL
# Molecular target: T1, Biotinylated-MTSP1
# Assay: Competition binding assay on sc95/96 coated plate
# Conditions: 125 ng/ml Biotinylated-MTSP1; HAI-1 titrated from 2 μg/ml, sc95/96 from 10 μg/ml
# Text: This experiment was set-up to determine whether or not HAI-1 (the natural inhibitor of MT-SP1) would compete for binding to MT-SP1 with 95/96.
# Bound MTSP was then detected with SA-pod.
molecule,measurement,value
B1,competition for binding of MT-SP1 to sc95/96 coated plate,prevented the binding of MT-SP1 to the plate
